Source: US20240279318A1 (NANJING LEGEND BIOTECH, published 2024)

Legend:
[1] = target: T1, OR6C1 peptide loaded T2 cells (human, UniProt P61769 21-119); assay: flow cytometry, peptide-loaded T2 cells
T1 construct: whole, on cells; also called OR6C1/T2

[2] = target: T2, PTP4A1 peptide loaded T2 cells (human, UniProt P61769 21-119); assay: flow cytometry, peptide-loaded T2 cells
T2 construct: whole, on cells; also called PTP4A1-pulsed T2 cells

[3] = target: T3, RP1 peptide loaded T2 cells (human, UniProt P61769 21-119); assay: flow cytometry, peptide-loaded T2 cells
T3 construct: whole, on cells; also called RP1/T2

[4] = target: T4, RCL1 peptide loaded T2 cells (human); assay: flow cytometry, peptide-loaded T2 cells
T4 construct: whole, on cells; also called RCL1/T2

[5] = target: T5, ZNF566 peptide loaded T2 cells (human, UniProt P61769 21-119); assay: flow cytometry, peptide-loaded T2 cells
T5 construct: whole, on cells; also called ZNF566/T2

[6] = target: T6, ARNTL peptide loaded T2 cells (human, UniProt P61769 21-119); assay: flow cytometry, peptide-loaded T2 cells
T6 construct: whole, on cells; also called ARNTL/T2

[7] = target: T7, ATG9A peptide loaded T2 cells (human, UniProt P61769 21-119); assay: flow cytometry, peptide-loaded T2 cells
T7 construct: whole, on cells; also called ATG9A/T2

[8] = target: T8, BRCA2 peptide loaded T2 cells (human); assay: flow cytometry, peptide-loaded T2 cells
T8 construct: whole, on cells; also called BRCA2/T2

[9] = target: T9, CDC14A peptide loaded T2 cells (human, UniProt P61769 21-119); assay: flow cytometry, peptide-loaded T2 cells
T9 construct: whole, on cells; also called CDC14A/T2

[10] = target: T10, NR2E1 peptide loaded T2 cells (human, UniProt P61769 21-119); assay: flow cytometry, peptide-loaded T2 cells
T10 construct: whole, on cells; also called NR2E1/T2

[11] = target: T11, OR1I1 peptide loaded T2 cells (human, UniProt P61769 21-119); assay: flow cytometry, peptide-loaded T2 cells
T11 construct: whole, on cells; also called OR1I1/T2

[12] = target: T12, OR51B6 peptide loaded T2 cells (human, UniProt P61769 21-119); assay: flow cytometry, peptide-loaded T2 cells
T12 construct: whole, on cells; also called OR51B6/T2

[13] = target: T13, AFP158/HLA-A*02:01 complex (human); assay: SPR, scFv-mIgG2aFc from supernatant captured, complex as analyte
T13 construct: biotinylated on the BSP by BirA for ELISA and panning; also called biotinylated AFP158/HLA-A*02:01 complex; Bio-AFP158
Method: (§1) The binding affinity between selected antibodies and AFP158/HLA-A*02:01 complex was determined by surface plasmon resonance (SPR) on a BIAcore T200 instrument (GE Healthcare). The experiment was carried out as follows. The purified sdAb/scFv-mIgG2aFc protein were captured through mIgG2a-Fc onto the sensorchip. […] On-rate (kₐ) and off-rate (kd) were calculated based on association and dissociation curve, and were used to estimate the equilibrium dissociation constant (KD).
(§2) Humanized heavy chains and light chains were combined, and used to produce a series of humanized antibodies. These antibodies were synthesized as scFv-mIgG2aFc and transiently produced using HEK293 cells. The antibodies in the supernatant were subjected to SPR affinity assessment.

[14] = target: T13, AFP158/HLA-A*02:01 complex; assay: SPR, antibody captured via mIgG2a-Fc, complex as analyte
Method: as §1

[15] = target: T13, AFP158/HLA-A*02:01 complex; assay: SPR, scFv-mIgG2aFc from supernatant captured, complex as analyte; remark: listed apart in the source
Method: as §1, §2

[16] = target: T2, PTP4A1 peptide loaded T2 cells; assay: flow cytometry, 30 or 50 nM i647-labelled antibody
Method: At the concentration of 30 or 50 nM, binding of 7 antibodies to T2 cells loaded with AFP158, 50 endogenous self-peptides and 12 homologous peptides were carried out using flow cytometry.

Row | binding result [1] | binding result [2] | binding result [3] | binding result [4] | binding result [5] | binding result [6] | binding result [7] | binding result [8] | binding result [9] | binding result [10] | binding result [11] | binding result [12] | Kd [13] | koff [13] | kon [13] | Kd [14] | koff [14] | kon [14] | Binder | also measured
1 | no binding (tested: 30 or 50 nM) | no binding (tested: 30 or 50 nM) | no binding (tested: 30 or 50 nM) | no binding (tested: 30 or 50 nM) | no binding (tested: 30 or 50 nM) | no binding (tested: 30 or 50 nM) | no binding (tested: 30 or 50 nM) | no binding (tested: 30 or 50 nM) | no binding (tested: 30 or 50 nM) | no binding (tested: 30 or 50 nM) | no binding (tested: 30 or 50 nM) | no binding (tested: 30 or 50 nM) | 360 nM | 0.062 s⁻¹ | 170000 M⁻¹ s⁻¹ | – | – | – | AS170036 VL1VH1 scFv-mIgG2aFc (Fc fusion, not shown: a dimerising Fc or GST, Humanized) QSALTQPRSVSGSPGQSVTISCAGTSSDVGSENYVSWYQQHPGKAPKLMIYQVNKRASGVPDRFSGSKSGNTASLTISGLQAEDEADYYCASYRSSDHNIVFGGGTKLTVLGGGGSGGGGSGGGGSEVQLVESGGGLVQPGGSLRLSCAASGFTFSSYAMSWVRQAPGKGLEWVSTINSGTGSPYYADSVKGRFTISRDNSKNTLYLQMNSLRAEDTAVYYCAKNFFDGSWFLGPPAMDYWGQGTLVTVSS | –
2 | no binding (tested: 30 or 50 nM) | no binding (tested: 30 or 50 nM) | no binding (tested: 30 or 50 nM) | no binding (tested: 30 or 50 nM) | no binding (tested: 30 or 50 nM) | no binding (tested: 30 or 50 nM) | no binding (tested: 30 or 50 nM) | no binding (tested: 30 or 50 nM) | no binding (tested: 30 or 50 nM) | no binding (tested: 30 or 50 nM) | no binding (tested: 30 or 50 nM) | no binding (tested: 30 or 50 nM) | – | – | – | 67 nM | 0.0086 s⁻¹ | 130000 M⁻¹ s⁻¹ | AS179732 scFv-mIgG2aFc (Fc fusion, not shown: a dimerising Fc or GST, Camel scFv; i647-labelled for flow cytometry) NFMLTQPPSMSGSPRQSVTISCTGSSSNIGGNYVNWYQHLPGTAPKLLIYDNSNRASGVPERFSGSKSGSSASLTITGLQAEDEGDYYCASWDDSLSGAVFGGGTHLTVLGGGGSGGGGSGGGGSEVQLVESGGGLVQPGGSLRLSCAASGFTFLNYAMSWVRQAPGKGLEWVSSNSGAGSTYYSDSVKGRFTISRDYAKNVVYLQLNSLKTEDTGMYYCAKGTNVGSWSSLHYWGQGTQVTVSS | Kd [15]: 47 nM; koff [15]: 0.0075 s⁻¹; kon [15]: 160000 M⁻¹ s⁻¹
3 | – | – | – | – | – | – | – | – | – | – | – | – | – | – | – | – | – | – | ET1402L1 scFv fused to a C-terminal mouse IgG2a Fc region (Fc fusion, not shown: a dimerising Fc or GST, also called positive control antibody) QSVLTQPASVSGSPGQSITISCTGTSSDVGGYNYVSWYQQHPGKAPKLMIYDVNNRPSEVSNRFSGSKSGNTASLTISGLQAEDEADYYCSSYTTGSRAVFGGGTKLTVLGGGGSGGGGSGGGGSEVQLVQSGAEVKKPGESLTISCKASGYSFPNYWITWVRQMSGGGLEWMGRIDPGDSYTTYNPSFQGHVTISIDKSTNTAYLHWNSLKASDTAMYYCARYYVSLVDIWGQGTLVTVSS | binding result [16]: binds
4 | no binding (tested: 30 or 50 nM) | no binding (tested: 30 or 50 nM) | no binding (tested: 30 or 50 nM) | no binding (tested: 30 or 50 nM) | no binding (tested: 30 or 50 nM) | no binding (tested: 30 or 50 nM) | no binding (tested: 30 or 50 nM) | no binding (tested: 30 or 50 nM) | no binding (tested: 30 or 50 nM) | no binding (tested: 30 or 50 nM) | no binding (tested: 30 or 50 nM) | no binding (tested: 30 or 50 nM) | 450 nM | 0.19 s⁻¹ | 430000 M⁻¹ s⁻¹ | 250 nM | 0.06 s⁻¹ | 240000 M⁻¹ s⁻¹ | AS170036 scFv-mIgG2aFc (Fc fusion, not shown: a dimerising Fc or GST, Camel scFv) QLVLTQPSSVSGTPGQTVTISCAGTSSDVGSENYVSWYRQLPGTAPKLLIYQVNKRASGIADRFSGSKSGNTASMTISGLQSADEADYYCASYRSSDHNIVFGGGTHLTVLGGGGSGGGGSGGGGSAVQLVESGGGLVQPGGSLRLSCTASGFTFSSYAMSWVRQAPGKGLEWVSTINSGTGSPYYADSVKGRFTISRDNAKNTLYLQLNSLKTEDTAMYYCAKNFFDGSWFLGPPAMDYWGKGTLVTISS | –
